B1: wildtype TBK1 (TANK-binding kinase 1), mCitrine-Protein A fusion [not stated] / TRAF family member-associated NF-kB activator (TANK), NanoLuc-tagged [not stated] (parent complex)
chain 1: MQSTSNHLWLLSDILGQGATANVFRGRHKKTGDLFAIKVFNNISFLRPVDVQMREFEVLKKLNHKNIVKLFAIEEETTTRHKVLIMEFCPCGSLYTVLEEPSNAYGLPESEFLIVLRDVVGGMNHLRENGIVHRDIKPGNIMRVIGEDGQSVYKLTDFGAARELEDDEQFVSLYGTEEYLHPDMYERAVLRKDHQKKYGATVDLWSIGVTFYHAATGSLPFRPFEGPRRNKEVMYKIITGKPSGAISGVQKAENGPIDWSGDMPVSCSLSRGLQVLLTPVLANILEADQEKCWGFDQFFAETSDILHRMVIHVFSLQQMTAHKIYIHSYNTATIFHELVYKQTKIISSNQELIYEGRRLVLEPGRLAQHFPKTTEENPIFVVSREPLNTIGLIYEKISLPKVHPRYDLDGDASMAKAITGVVCYACRIASTLLLYQELMRKGIRWLIELIKDDYNETVHKKTEVVITLDFCIRNIEKTVKVYEKLMKINLEAAELGEISDIHTKLLRLSSSQGTIETSLQDIDSRLSPGGSLADAWAHQEGTHPKDRNVEKLQVLLNCMTEIYYQFKKDKAERRLAYNEEQIHKFDKQKLYYHATKAMTHFTDECVKKYEAFLNKSEEWIRKMLHLRKQLLSLTNQCFDIEEEVSKYQEYTNELQETLPQKMFTASSGIKHTMTPIYPSSNTLVEMTLGMKKLKEEMEGVVKELAENNHILERFGSLTMDGGLRNVDCL
chain 2: MDKNIGEQLNKAYEAFRQACMDRDSAVKELQQKTENYEQRIREQQEQLSLQQTIIDKLKSQLLLVNSTQDNNYGCVPLLEDSETRKNNLTLDQPQDKVISGIAREKLPKVRRQEVSSPRKETSARSLGSPLLHERGNIEKTFWDLKEEFHKICMLAKAQKDHLSKLNIPDTATETQCSVPIQCTDKTDKQEALFKPQAKDDINRGAPSITSVTPRGLCRDEEDTSFESLSKFNVKFPPMDNDSTFLHSTPERPGILSPATSEAVCQEKFNMEFRDNPGNFVKTEETLFEIQGIDPIASAIQNLKTTDKTKPSNLVNTCIRTTLDRAACLPPGDHNALYVNSFPLLDPSDAPFPSLDSPGKAIRGPQQPIWKPFPNQDSDSVVLSGTDSELHIPRVCEFCQAVFPPSITSRGDFLRHLNSHFNGET

Variants of: B1
Experiment: LuTHy-BRET; live HEK293 cells; parent: 1; read off a plot

| ratio to parent | Variant |
| --- | --- |
| ~1 | chain 1 R47H |
| ~0.99 | chain 1 E696K |

Variants of: B1
Experiment: LuTHy-BRET donor saturation assay; live HEK293 cells; read at Acceptor:Donor = 4 (highest point of the curve); parent: 0.068; read off a plot

| response | Variant |
| --- | --- |
| ~0.062 | chain 1 E696K |

Reference: article PMC10959724 (2024)
